The source of these data is publication PMC6693564, “RGG-motif self-association regulates eIF4G-binding translation repressor protein Scd6” (RNA Biology, 2019).

For orientation: stoichiometry N means the number of molecules, sites or subunits per partner or assembly.

In data set [1] the target is T1, HisSbp1FLAG (recombinant) (yeast, UniProt P10080 1-294).
T1 construct: Sbp1, yeast; also called full-length Sbp1FLAG; source: E. coli XL1-Blue, purified (Ni-NTA)
T1 sequence (looked up): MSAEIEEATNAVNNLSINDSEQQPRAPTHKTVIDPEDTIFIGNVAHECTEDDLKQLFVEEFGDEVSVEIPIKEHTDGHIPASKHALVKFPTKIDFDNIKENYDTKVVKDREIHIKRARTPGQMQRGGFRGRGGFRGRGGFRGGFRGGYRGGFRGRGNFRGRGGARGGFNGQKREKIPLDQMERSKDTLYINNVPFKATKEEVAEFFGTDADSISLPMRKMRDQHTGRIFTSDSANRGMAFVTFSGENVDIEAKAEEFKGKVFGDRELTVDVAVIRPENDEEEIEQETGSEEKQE
Nature of the data set: pull-down; FLAG pull-down of purified Sbp1FLAG with purified Sbp1GFP or Sbp1GFPΔRGG in the presence of RNase A; 450 nM proteins; blots with anti-GFP and anti-FLAG. To be noted: both partners purified.

In another data set the target is T2, GSTScd6 (recombinant) (yeast, UniProt P45978 1-349).
T2 construct: Scd6, yeast; also called full-length GSTScd6; source: E. coli BL21, purified (glutathione sepharose)
T2 sequence (looked up): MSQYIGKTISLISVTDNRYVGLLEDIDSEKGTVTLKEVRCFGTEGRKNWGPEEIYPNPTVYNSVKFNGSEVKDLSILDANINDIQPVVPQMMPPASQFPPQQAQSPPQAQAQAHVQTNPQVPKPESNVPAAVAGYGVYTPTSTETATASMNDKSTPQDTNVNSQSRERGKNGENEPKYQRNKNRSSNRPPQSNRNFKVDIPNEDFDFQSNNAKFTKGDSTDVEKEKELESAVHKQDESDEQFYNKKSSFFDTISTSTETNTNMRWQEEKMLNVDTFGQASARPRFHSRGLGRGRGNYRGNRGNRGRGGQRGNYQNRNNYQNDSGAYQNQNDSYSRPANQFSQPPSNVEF
Nature of the data set: pull-down; 450 nM purified proteins with glutathione sepharose beads, 2 h at 4°C, 50mM HEPES pH7, 100mM NaCl, 1mM DTT, 2mM MnCl2, 2mM MgCl2, 1% Triton-X100, 10% glycerol, 0.25mg/ml RNase A, 10mg/ml BSA; GST fusion as bait; anti-FLAG blot; for Figure 5e Scd6FLAG first incubated with Hmt1 with or without SAM. To be noted: both partners purified.

Data set [2] deals with the molecule itself. Briefly: SEC; Sephacryl S-200 HR (45 ml, manual), 1 mg protein in 100 µl loaded, 20mM HEPES-KOH pH7.6, 100mM KCl, 10% glycerol; standards 200, 150, 66, 29 kDa. On the technique in general: Size exclusion chromatography separates by hydrodynamic size, large species first.

B1: HisSbp1GFP (recombinant) (natural protein, yeast, UniProt P10080 1-294, looked up)
chain: T1 sequence (looked up)
notes: Sbp1, yeast, wild type; source: E. coli XL1-Blue, purified (Ni-NTA)
Regarding B1, the binding result in data set [1] is recorded as “binds”.

B2: in vitro methylated Scd6FLAG (natural protein, yeast, UniProt P45978 1-349, looked up)
chain: T2 sequence (looked up)
modifications: arginine methylation by Hmt1 in vitro (stained by mono-methylarginine specific antibody); sites not given
notes: Scd6, yeast; Same protein as m4 after methylation; source: E. coli BL21, purified, then methylated in vitro by incubating with Hmt1 and SAM
In the case of B2, the binding result with GSTScd6 (recombinant) was “binds”.

B3: HisScd6FLAG (recombinant) (natural protein, yeast, UniProt P45978 1-349, looked up)
chain: T2 sequence (looked up)
notes: Scd6, yeast; predicted molecular mass of the purified protein about 41.5 kDa; also called purified Scd6; source: E. coli BL21, purified (HisTrap HP, HiTrap Heparin HP)
For the molecule B3, the “stoichiometry N” value in data set [2] is 2.
